Positions count from the first letter of the chain named.

To fix the notation:
B1: scFv antibody variant JS9 (scFv, V domains shown)
VH: EVQLVGSGGGVVQPGRSLRLSCAASGFNFDDHAMHWVRQAPGKGLEWVSSISGSGGDTYYADSVKGRFTIARDNSKNTLYLQMNSLRAEDTAVYYCATEARGLAHWGQGTLVTVSS
VL: SSELTQDPAVSVALGQTASITCSGHKLGERYACWYQQKPGQSPVLVIYQDTKRPSGIPERFSGSNTGNTATLTITGTQAMDEADYYCQAWDSSTVVFGGGTKLTVLG
B2: scFv antibody variant JS30 (scFv, V domains shown)
VH: EVQLVESGPGQVKPSETLSLTCSVSGGSISSRDWWGWVRQPPGEGLEWIGEIYHSGTTNYNPSLKSRVTMSMDTSKNQLSLKLTGVTAVDTAVYYCVTYSASDAAFDSWGQGTLVTVSS
VL: ETTLTQSPSSLSASVGDRITITCRASQSISTCLNWYQQKPGKAPKSLIYGASILQSGVSSQFSGSGPGTDFTLTIGSLQPEGFATYYCQQGNSVPLTFGGGTKVDIKR
B3: scFv antibody variant JS41 (scFv, V domains shown)
VH: B2 VH with S102Y
VL: B2 VL with C32Y, N34S, I53N, S63R, G76S, G82D
B4: scFv antibody variant JS144 (scFv, V domains shown)
VH: QVQLQESGGGLVQPGGSLRLACAGSGFTFSNFAMAWVRLAPGKGLEWVSGISDDGTITDYADSVKGRFTISRDNSKNTLYLQMNSLRAEDTAVYYCVRVPSPAPVQGPDYWGQGTTVTVSS
VL: DVVMTQSPSAMSASVGDRVTITCRASQGISNYLAWFQQKPGKVPKRLIYAASSLQGGVPSRFRGRGSGTDFTLSISCLQSEDFATYYCQQYHSYPLTFGGGTKLSVLG
B5: scFv antibody variant JS48 (scFv, V domains shown)
VH: B4 VH with A21T, R98K, V105M, T116L
VL: B2 VL with I19V, C32Y, I53N, S65R, G76S, G82D
B6: scFv antibody variant JS116 (scFv, V domains shown)
VH: B4 VH with S101P
VL: B4 VL
notes: No full VH/VL is printed

One test deals with T1, Fc alpha receptor-ECD-streptavidin-Alexa488 (human, UniProt P24071 22-227, labeled with Alexa488 fluorescent molecules (sites not given)).
T1 construct: Tetrameric antigen made in Expi293F cells and labelled with Alexa488 for flow cytometry; Any linker or purification tag (Ni-NTA resin was used) is not described; also called Fc alpha receptor-ECD-streptavidin-Alexa488 probe; Fc alpha receptor-ECD-streptavidin-Alexa488 antigen; not shown: streptavidin tag
T1 sequence (P24071 22-227 limits assumed): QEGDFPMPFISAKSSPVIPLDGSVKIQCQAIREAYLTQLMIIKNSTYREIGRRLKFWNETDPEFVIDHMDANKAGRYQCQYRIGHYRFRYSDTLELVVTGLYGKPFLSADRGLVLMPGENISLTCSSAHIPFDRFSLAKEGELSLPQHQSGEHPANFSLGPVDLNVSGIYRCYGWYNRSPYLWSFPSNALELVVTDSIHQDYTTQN
Briefly: flow cytometry, scFv displayed on E. coli spheroplasts, 50 nM Alexa488-labelled antigen. (A flow cytometer gives signals particle by particle.)
On to B1, for which the binding result was “binds”. B2: the binding result is “binds”. Turning to B3, the binding result was “binds”.

As for B4, the binding result is recorded as “binds”. With B5, the binding result is on record as “binds”.

The target of the next test is T1, Fc alpha …. Briefly: flow cytometry, legend of FIG. 8.
For the molecule B6, the binding result is given as “binds”.
